Bridge positions count the residues as written; N and C are the ends. Square brackets hold non-standard residues; d marks the D form. Ends that are not written are not given here. Oic = O=C(O)[C@@H]1C[C@@H]2CCCC[C@@H]2N1; PEG8 = NCCOCCOCCOCCOCCOCCOCCOCCOCCC(=O)O; tBuAla = CC(C)(C)C[C@H](N)C(=O)O; Pen = CC(C)(S)[C@H](N)C(=O)O; NMeC = CN[C@@H](CS)C(=O)O; Orn = NCCC[C@H](N)C(=O)O; Sar = CNCC(=O)O
T1: recombinant rat MASP1 active protease (amino acids 302-704, C-terminal His Tag) (rat, UniProt Q8CHN8 302-704)
T1 sequence: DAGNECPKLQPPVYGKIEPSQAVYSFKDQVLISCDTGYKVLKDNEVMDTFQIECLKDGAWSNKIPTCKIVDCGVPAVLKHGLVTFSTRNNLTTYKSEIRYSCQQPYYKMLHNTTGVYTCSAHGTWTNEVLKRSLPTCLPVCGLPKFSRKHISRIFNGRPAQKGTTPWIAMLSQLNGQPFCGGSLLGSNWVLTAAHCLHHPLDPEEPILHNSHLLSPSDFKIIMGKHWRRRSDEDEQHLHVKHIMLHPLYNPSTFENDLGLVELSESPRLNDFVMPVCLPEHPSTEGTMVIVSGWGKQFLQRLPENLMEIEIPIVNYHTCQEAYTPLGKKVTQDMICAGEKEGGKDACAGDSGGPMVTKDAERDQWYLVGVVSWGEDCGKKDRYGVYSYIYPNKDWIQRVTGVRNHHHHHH


Target: T1, recombinant rat MASP1 active protease …
Assay: cell-based or functional assay

| rat MASP1 IC50 [nM] | Binder |
| --- | --- |
| 16 | AICSRS[tBuAla]PPI[NMeC]IPD-OH (disulfide 3-11; N-terminus assumed; SMILES CC[C@H](C)[C@H](NC(=O)[C@H](C)N)C(=O)N[C@H]1CSSC[C@@H](C(=O)N[C@H](C(=O)N2CCC[C@H]2C(=O)N[C@@H](CC(=O)O)C(=O)O)[C@@H](C)CC)N(C)C(=O)[C@H]([C@@H](C)CC)NC(=O)[C@@H]2CCCN2C(=O)[C@@H]2CCCN2C(=O)[C@H](CC(C)(C)C)NC(=O)[C@H](CO)NC(=O)[C@H](CCCNC(=N)N)NC(=O)[C@H](CO)NC1=O) [Example 86: AIC+SRS-((tBu)A)-PPI-((N-Me)C)+IPD-OH] |
| 48 | [Orn]ICSRS[tBuAla]PPI[NMeC]IPD-NH2 (disulfide 3-11; also: HCl salt) [Example 78: (Orn)-IC+SRS-((tBu)A)-PPI-((N-Me)C)+IPD-NH2 (HCl salt)] |
| 71 | [Sar]ICSRS[tBuAla]PPI[Pen]IP-{PEG8-NH2} (disulfide 3-11) [Example 74: ((N-Me)G)-IC+SRS-((tBu)A)-PPI-(Pen)+IP-(PEG8(28 atoms))-NH2] |
| 85 | KICSRS[tBuAla]PPI[NMeC]I-NH2 (disulfide 3-11; N-terminus assumed; SMILES CC[C@H](C)[C@H](NC(=O)[C@@H]1CSSC[C@H](NC(=O)[C@@H](NC(=O)[C@@H](N)CCCCN)[C@@H](C)CC)C(=O)N[C@@H](CO)C(=O)N[C@@H](CCCNC(=N)N)C(=O)N[C@@H](CO)C(=O)N[C@@H](CC(C)(C)C)C(=O)N2CCC[C@H]2C(=O)N2CCC[C@H]2C(=O)N[C@@H]([C@@H](C)CC)C(=O)N1C)C(N)=O) [Example 79: KIC+SRS-((tBu)A)-PPI-((N-Me)C)+I-NH2] |
| 66 | [Orn]ICSRS[tBuAla]PPI[NMeC]IPD-NH2 (disulfide 3-11; N-terminus assumed; SMILES CC[C@H](C)[C@H](NC(=O)[C@@H](N)CCCN)C(=O)N[C@H]1CSSC[C@@H](C(=O)N[C@H](C(=O)N2CCC[C@H]2C(=O)N[C@@H](CC(=O)O)C(N)=O)[C@@H](C)CC)N(C)C(=O)[C@H]([C@@H](C)CC)NC(=O)[C@@H]2CCCN2C(=O)[C@@H]2CCCN2C(=O)[C@H](CC(C)(C)C)NC(=O)[C@H](CO)NC(=O)[C@H](CCCNC(=N)N)NC(=O)[C@H](CO)NC1=O) [Example 77: (Orn)-IC+SRS-((tBu)A)-PPI-((N-Me)C)+IPD-NH2] |
| 17 | AICSRS[tBuAla]PPI[Pen]IPD-NH2 (disulfide 3-11; N-terminus assumed; SMILES CC[C@H](C)[C@H](NC(=O)[C@H](C)N)C(=O)N[C@H]1CSSC(C)(C)[C@@H](C(=O)N[C@H](C(=O)N2CCC[C@H]2C(=O)N[C@@H](CC(=O)O)C(N)=O)[C@@H](C)CC)NC(=O)[C@H]([C@@H](C)CC)NC(=O)[C@@H]2CCCN2C(=O)[C@@H]2CCCN2C(=O)[C@H](CC(C)(C)C)NC(=O)[C@H](CO)NC(=O)[C@H](CCCNC(=N)N)NC(=O)[C@H](CO)NC1=O) [Example 98: AIC+SRS-((tBu)A)-PPI-(Pen)+IPD-NH2] |
| 220 | AICSRS[tBuAla]P[Oic]ICI-NH2 (disulfide 3-11; N-terminus assumed; SMILES CC[C@H](C)[C@H](NC(=O)[C@@H]1CSSC[C@H](NC(=O)[C@@H](NC(=O)[C@H](C)N)[C@@H](C)CC)C(=O)N[C@@H](CO)C(=O)N[C@@H](CCCNC(=N)N)C(=O)N[C@@H](CO)C(=O)N[C@@H](CC(C)(C)C)C(=O)N2CCC[C@H]2C(=O)N2[C@@H](C[C@@H]3CCCC[C@@H]32)C(=O)N[C@@H]([C@@H](C)CC)C(=O)N1)C(N)=O) [Example 99: AIC+SRS-((tBu)A)-P-(Oic)-IC+I-NH2] |
| 140 | AICSRSLP[rel‑(1R,3R,5R,6R)‑6‑(Trifluoromethyl)‑2‑azabicyclo(3.1.0)hexane‑3‑carboxylic acid]ICIPD-NH2 (disulfide 3-11) |
